Test results as given in PMC8567202, “Phosphoinositide-binding activity of Smad2 is essential for its function in TGF-β signaling” (The Journal of Biological Chemistry, 2021).
Entries after “also recorded” stand apart in the source; their conditions may differ. Read-outs that look alike come from different tables or passages of the source.

Test system: TβRI GS region peptide (F-Ahx-YDMTTpSGpSGpSGLPLL)
Assay: Fluorescence anisotropy binding to TβRI GS peptide
Excerpt: However, this tentative assignment has been confirmed neither by a high-resolution structure of the Smad2-TβRI complex nor by a quantitative and systematic binding study, leaving uncertainty about the exact nature of the Smad2-TβRI-binding interface. Since the L3 loop is a part of the newly identified PI(4,5)P2-binding site, we checked if these PI(4,5)P2-binding residues are also involved in the Smad2-TβRI interaction using two fluorescein-labeled synthetic peptides derived from the GS region (i.e., GS peptide: fluorescein-aminohexanoyl (F-Ahx)-YDMTTpSGpSGpSGLPLL) and the L45 loop (i.e., L45 peptide: F-Ahx-ADNKDNGT), respectively. In particular, the GS peptide represents the GS motif triply phosphorylated by TβRII. We then measured binding to Smad2 WT and mutants to these peptides by fluorescence anisotropy according to our established protocol ([21]). […] We thus primarily used the GS peptide to assess the effects of mutations on the Smad2-TβRI interaction. […] They also yielded distinct structural variants for further functional studies. Specifically, W422A and Y426A could serve as specific PI(4,5)P2 binding-compromised mutants and K420A as a predominantly TβRI binding-compromised mutant. R427A/R428A could also serve as a PI(4,5)P2 and TβRI binding-compromised mutant, whereas E425K as a PI(4,5)P2 and TβRI binding-enhanced mutant.
Figure 3 Affinity of Smad2 WT and mutants for TβRI-derived peptides determined by fluorescence anisotropy.A, binding of Smad2 WT (black), W422A (red), Y420A (cyan), R427A/R428A (green), K420A (blue), and E425K (orange) to the GS peptide (F-Ahx-YDMTTpSGpSGpSGLPLL). […] B, binding of Smad2 WT (black), W422A (red), Y420A (cyan), R427A/R428A (green), K420A (blue), and E425K (orange) to the L45 loop peptide (F-Ahx-DNKDNGT). C, effects of 50 μM POPC/POPS/PI(4,5)P2 (77:20:3) LUVs on binding of Smad2 to the GS peptide. The presence of vesicles (orange) raises the Kd value from 20 ± 6 to 60 ± 7 nM. The peptide concentration was fixed at 2.5 nM, and the Smad2 concentration was varied from 0 to 150 μM. The experimentally observed anisotropy (A) values were normalized (Anorm) using the equation: Anorm = (A − Amin)/(Amax − Amin) where Amax and Amin are maximal and minimal A values, respectively, for each measurement. The plots of Anormversus [Smad2] were analyzed by the nonlinear least-squares analysis using the equation: Anorm = 1/(1 + Kd/[Smad2]).
The fluorescein-6-aminohexanoyl (F-Ahx)-labeled TβRI GS region peptide (F-Ahx-YDMTTpSGpSGpSGLPLL) was dissolved in dimethyl sulfoxide to yield 1 mg/ml stock solution, F-Ahx-labeled TβRI L45 loop region peptide (F-Ahx-ADNKDNGT) was dissolved in a 3:1 mixture of water and acetonitrile to yield 2.5 mg/ml stock solution. Both peptide solutions were diluted to 1 to 10 μM with 20 mM Tris buffer, pH 7.9, containing 160 mM NaCl for binding studies. In total, 300 μl of the Smad2 (WT or mutant) solution (0–250 μM) was added to a series of 1.5 ml microcentrifuge containing the peptide solution (2.5 μM). After 10-min incubation in the dark, the mixture was transferred to a quartz cuvette with 2-mm path length and fluorescence anisotropy (r) was measured with excitation and emission wavelengths set at 485 and 535 nm, respectively, using Horiba Flurolog-3 spectrofluorometer. Since Po >> Pepo under our conditions, the Kd for the Smad2-peptide binding was determined by the nonlinear least-squares analysis of the binding isotherm using the Equation 1:(1) Pepbound/Pep0=Δr/Δrmax=1/1+kd/P0 where Pepbound, Pep0, and P0 indicate the concentration of bound peptide, total peptide, and total Smad2, respectively, and Δr and Δrmax are the anisotropy change for each P0 and the maximal Δr, respectively.

[1] = fluorescence anisotropy, 20 mM Tris, pH 7.9, 160 mM NaCl, 10-min incubation, average ±S.D., n = 3, read-out: Kd for peptide binding, GS peptide

Molecule | GS peptide affinity relative to WT (fluorescence anisotropy) | Kd [1] [µM] | effect of PI(4,5)P2 LUVs on binding to the GS peptide (50 μM POPC/POPS/PI(4,5)P2 (77:20:3) LUVs) | binding to GS peptide relative to L45 peptide (fluorescence anisotropy, Kd comparison) [times] | Kd (with 50 μM POPC/POPS/PI(4,5)P2 (77:20:3) LUVs, fluorescence anisotropy, Smad2 0 to 150 μM, read-out: Kd, GS peptide, in the presence of vesicles) [µM] | Kd (without LUVs, fluorescence anisotropy, Smad2 0 to 150 μM, read-out: Kd, GS peptide, without vesicles) [µM] | GS peptide affinity relative to WT (fluorescence anisotropy, listed as Y420A)
Smad2-W422A: W422A mutant of full-length Smad2; specific PI(4,5)P2 binding-compromised (protein, left off: His6, N-terminal, state not stated) MSSILPFTPPVVKRLLGWKKSAGGSGGAGGGEQNGQEEKWCEKAVKSLVKKLKKTGRLDELEKAITTQNCNTKCVTIPSTCSEIWGLSTANTVDQWDTTGLYSFSEQTRSLDGRLQVSHRKGLPHVIYCRLWRWPDLHSHHELKAIENCEYAFNLKKDEVCVNPYHYQRVETPVLPPVLVPRHTEILTELPPLDDYTHSIPENTNFPAGIEPQSNYIPETPPPGYISEDGETSDQQLNQSMDTGSPAELSPTTLSPVNHSLDLQPVTYSEPAFWCSIAYYELNQRVGETFHASQPSLTVDGFTDPSNSERFCLGLLSNVNRNATVEMTRRHIGRGVRLYYIGGEVFAECLSDSAIFVQSPNCNQRYGWHPATVCKIPPGCNLKIFNNQEFAALLAQSVNQGFEAVYQLTRMCTIRMSFVKGAGAEYRRQTVTSTPCWIELHLNGPLQWLDKVLTQMGSPSVRCSSMS | essentially the same affinity as the WT; also recorded: essentially identical binding curves | 21 ± 5 | – | – | – | – | –
Smad2-K420A: K420A mutant of full-length Smad2; predominantly TβRI binding-compromised (protein, left off: His6, N-terminal, state not stated) MSSILPFTPPVVKRLLGWKKSAGGSGGAGGGEQNGQEEKWCEKAVKSLVKKLKKTGRLDELEKAITTQNCNTKCVTIPSTCSEIWGLSTANTVDQWDTTGLYSFSEQTRSLDGRLQVSHRKGLPHVIYCRLWRWPDLHSHHELKAIENCEYAFNLKKDEVCVNPYHYQRVETPVLPPVLVPRHTEILTELPPLDDYTHSIPENTNFPAGIEPQSNYIPETPPPGYISEDGETSDQQLNQSMDTGSPAELSPTTLSPVNHSLDLQPVTYSEPAFWCSIAYYELNQRVGETFHASQPSLTVDGFTDPSNSERFCLGLLSNVNRNATVEMTRRHIGRGVRLYYIGGEVFAECLSDSAIFVQSPNCNQRYGWHPATVCKIPPGCNLKIFNNQEFAALLAQSVNQGFEAVYQLTRMCTIRMSFVAGWGAEYRRQTVTSTPCWIELHLNGPLQWLDKVLTQMGSPSVRCSSMS | tenfold decrease; also recorded: tenfold lower affinity than the WT | 200 ± 48 | – | – | – | – | –
Smad2- R427A/R428A: double mutant of full-length Smad2; PI(4,5)P2 and TβRI binding-compromised (protein, left off: His6, N-terminal, state not stated) MSSILPFTPPVVKRLLGWKKSAGGSGGAGGGEQNGQEEKWCEKAVKSLVKKLKKTGRLDELEKAITTQNCNTKCVTIPSTCSEIWGLSTANTVDQWDTTGLYSFSEQTRSLDGRLQVSHRKGLPHVIYCRLWRWPDLHSHHELKAIENCEYAFNLKKDEVCVNPYHYQRVETPVLPPVLVPRHTEILTELPPLDDYTHSIPENTNFPAGIEPQSNYIPETPPPGYISEDGETSDQQLNQSMDTGSPAELSPTTLSPVNHSLDLQPVTYSEPAFWCSIAYYELNQRVGETFHASQPSLTVDGFTDPSNSERFCLGLLSNVNRNATVEMTRRHIGRGVRLYYIGGEVFAECLSDSAIFVQSPNCNQRYGWHPATVCKIPPGCNLKIFNNQEFAALLAQSVNQGFEAVYQLTRMCTIRMSFVKGWGAEYAAQTVTSTPCWIELHLNGPLQWLDKVLTQMGSPSVRCSSMS | twofold lower affinity than the WT | 44 ± 4 | – | – | – | – | –
Smad2 WT: bacterially expressed full-length Smad2 wild-type (protein, left off: His6, N-terminal, state not stated, bacterially expressed full-length Smad2 wild-type) MSSILPFTPPVVKRLLGWKKSAGGSGGAGGGEQNGQEEKWCEKAVKSLVKKLKKTGRLDELEKAITTQNCNTKCVTIPSTCSEIWGLSTANTVDQWDTTGLYSFSEQTRSLDGRLQVSHRKGLPHVIYCRLWRWPDLHSHHELKAIENCEYAFNLKKDEVCVNPYHYQRVETPVLPPVLVPRHTEILTELPPLDDYTHSIPENTNFPAGIEPQSNYIPETPPPGYISEDGETSDQQLNQSMDTGSPAELSPTTLSPVNHSLDLQPVTYSEPAFWCSIAYYELNQRVGETFHASQPSLTVDGFTDPSNSERFCLGLLSNVNRNATVEMTRRHIGRGVRLYYIGGEVFAECLSDSAIFVQSPNCNQRYGWHPATVCKIPPGCNLKIFNNQEFAALLAQSVNQGFEAVYQLTRMCTIRMSFVKGWGAEYRRQTVTSTPCWIELHLNGPLQWLDKVLTQMGSPSVRCSSMS | – | 20 ± 6 | significantly interfered with binding of Smad2 to the GS peptide | 3.3 | 0.06 ± 0.007 | 0.02 ± 0.006 | –
Smad2-E425K: charge-reversal mutant of full-length Smad2; PI(4,5)P2 and TβRI binding-enhanced (protein, left off: His6, N-terminal, state not stated) MSSILPFTPPVVKRLLGWKKSAGGSGGAGGGEQNGQEEKWCEKAVKSLVKKLKKTGRLDELEKAITTQNCNTKCVTIPSTCSEIWGLSTANTVDQWDTTGLYSFSEQTRSLDGRLQVSHRKGLPHVIYCRLWRWPDLHSHHELKAIENCEYAFNLKKDEVCVNPYHYQRVETPVLPPVLVPRHTEILTELPPLDDYTHSIPENTNFPAGIEPQSNYIPETPPPGYISEDGETSDQQLNQSMDTGSPAELSPTTLSPVNHSLDLQPVTYSEPAFWCSIAYYELNQRVGETFHASQPSLTVDGFTDPSNSERFCLGLLSNVNRNATVEMTRRHIGRGVRLYYIGGEVFAECLSDSAIFVQSPNCNQRYGWHPATVCKIPPGCNLKIFNNQEFAALLAQSVNQGFEAVYQLTRMCTIRMSFVKGWGAKYRRQTVTSTPCWIELHLNGPLQWLDKVLTQMGSPSVRCSSMS | twofold higher affinity | 8 ± 0.8 | – | – | – | – | –
Smad2-Y426A: Y426A mutant of full-length Smad2; specific PI(4,5)P2 binding-compromised (protein, left off: His6, N-terminal, state not stated) MSSILPFTPPVVKRLLGWKKSAGGSGGAGGGEQNGQEEKWCEKAVKSLVKKLKKTGRLDELEKAITTQNCNTKCVTIPSTCSEIWGLSTANTVDQWDTTGLYSFSEQTRSLDGRLQVSHRKGLPHVIYCRLWRWPDLHSHHELKAIENCEYAFNLKKDEVCVNPYHYQRVETPVLPPVLVPRHTEILTELPPLDDYTHSIPENTNFPAGIEPQSNYIPETPPPGYISEDGETSDQQLNQSMDTGSPAELSPTTLSPVNHSLDLQPVTYSEPAFWCSIAYYELNQRVGETFHASQPSLTVDGFTDPSNSERFCLGLLSNVNRNATVEMTRRHIGRGVRLYYIGGEVFAECLSDSAIFVQSPNCNQRYGWHPATVCKIPPGCNLKIFNNQEFAALLAQSVNQGFEAVYQLTRMCTIRMSFVKGWGAEARRQTVTSTPCWIELHLNGPLQWLDKVLTQMGSPSVRCSSMS | essentially the same affinity as the WT | 20 ± 3 | – | – | – | – | essentially identical binding curves
